In patent publication US20230125561A1 (published 2023):

Molecular target: SARS-CoV-2 Spike S1 protein, B.1.351 (S. African) variant (SARS-CoV-2, UniProt P0DTC2 16-685)
Assay: ELISA

B1: Neumifil (HEX17: trimeric (hexavalent) form based on S. pneumoniae CBM40) (designed binder)
chain: GAMVIEKEDVETNASNGQRVDLSSELDKLKKLENATVHMEFKPDPKAPAFYNLFSVSSATKKDEYFTMAVYNNTATLEGRGSDGKQFYNNYNDAPLKVKPGQWNSVTFTVEKPTAELPKGRARLYVNGGLSRTSLRSGNFIKDMPDVTHVQIGATKRANNTVWGSNLQIRNLTVYNRALTPEEVQKRSGGGSGVIEKEDVETNASNGQRVDLSSELDKLKKLENATVHMEFKPDPKAPAFYNLFSVSSATKKDEYFTMAVYNNTATLEGRGSDGKQFYNNYNDAPLKVKPGQWNSVTFTVEKPTAELPKGRARLYVNGGLSRTSLRSGNFIKDMPDVTHVQIGATKRANNTVWGSNLQIRNLTVYNRALTPEEVQKRSGGSLGVPDFESDWFDVSSNSLYTLSHGLQRSPRRVVVEFARSSSPSTWNIVMPSYFNDGGHKGSGAQVEVGSLNIKLGTGAAVWGTGYFGGIDNSATTRFATGYYRVRAWI
For B1, the EC50 was 0.17 µg/mL.
